Data published in a protein production outcome set (Wang et al. 2014).

Test: label from the status in PepcDB records
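Note: failed if final PepcDB status was selected cloned or expressed and not failed if soluble or beyond.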

Row | Sequence | protein production
1 | AGSATITYSVLEETDRGSLVGNLAKDLGLSLRELITRGAQILSKGNKQLLQLEQKSGNLLLKEKLDREELCGSTNPCILHFQVLLKSPVQFIQGEIQLQDVNDHAPEFMEDE | not failed
2 | AHARLQITQFAMDSVGIGIQWIDPDSGRFVYANRHTAELLGYSEQEMLTLTVSDIDPAFPLPAFHATMARLRQSRYTQFQSQIETRGGVPIPVEITLYYMEGDADAPARVIAFLTDISRRKETEQTLVQAKEAAEKANLAKTAFVANMSHEIRTPMNAILGMV | failed
3 | AHNLALGAHGEDLAARYLTEAGMEIVDRNWRSRYGEVDLIAAEGDWLVFVEVKTRRGLGYGSPAEAVTFSKQRRIRLLAVEWLRDSGRHWSRVRFDVVAIMIGHGPQPQIEHVRD | failed
4 | AHQYGVKSYIGIPRSYSHDRTDFMQSEQAEILYYDGKYEETVEFIRDFSKDNGLYDASPGSANSSIDKMMYATIAFEIYEALLTVPSYVIVPVGNGTTLAGIYHGFRRMYDEGVIDHLPRMVGVSTSGGNPIVDSWRHGYSRVVDLNPEEIRETSINEPLVSYRSFDGQDALSAIRETHGRAMYVSDEEMVYYSNLIYSAEGLNPLPASASAVAAIGHLKVKQDETVVSVITGRQI | failed
5 | AIAAQTERRDAPELPDFSLLKRLARDQLIFLLEQLPGKKDLFIDADLMSPLDRIANVTILKQHEVDKLYKVELKPIVSSSDQLCFLIRPRIQTVKWISDLVNSDKVAGRFRRYKIIFTPQKFYACETVLEEQGVYGDVTTDEWNFYILPLDDDILSLELPEFFRDNFLEGDQRWVTTGGGALHLLQSVYGSFSKVYGIGRCAKMVYESWRELMEEGEQRTRQPEFAKVFLIDRDVDFVTPLCSQVVYEGLVDDIFRIKCSSVEFGPDVTSSDKSIKVMLNSQDKVFNEIRNEHFSNVFGFLSQKAKNLQTAYDKRRGMDIQQMKAFVADELKGLKQEHRLLSLHIGASESIMKKKTKQDFQELLKTEHSLLEGFEIRECIAYIEEHINRQVSMIDSLRLLCLLSITENGLLSKDYRSLKAQYLQSYGIEHLLTFANLRQLGLLEEQQTGETLTVMESKVGKLVNDKTAGKLTDAFSSLAKKSNFRALSKRLALVPKSGEEYDLRVPRDMAYIFSGAYIPLSCKLIEQVLERDGWTGLEEVTRMLNGQDFAVTGGSSSSEARNKSNGQRIILVMFLGGCTYSEISALRFLGKERGCRFIVLTTAITNSGRLLEALLDKHV | failed
6 | AIARSEWPFDYASEADAMLHRITPENFEKLVRFAARLLRVGEIIALPTDTVYGLAAAARNSHGIELLYQTKQRDLRKPLAIAVPSVEDVSVYLHTEHLPPGLLEAILPGPLTLLLRQREDYVGIDLQDVRIDQYRGWERAKRLAPNLNLRRDGLLGVRVPDASFACAVSRELGDPLALTSANVSGRGDCGSVDEFRALWSACAAVFDGGAMPKPVMPSTVVDLSVPGTFRITRAGWMATDLVRILENKFGLTNKSANTSN | failed
7 | AIASRAASLRAELTSLANAFEEERISSAERLDADLVRQAVEQAKPENLEQWKQVVHDATAKLQQFWEDSEQALIRETYALATSYLRESDDEVHRLQMTKKALEEQLETERRRSTRIEEQLAALQSRLLDSAAPAATTPADDARTQQEVLRSELQGFMQELVRNQRESLRVLQEELQRVREEASVREENLLRQIAHLKTELAVARTDNEVSSRQLRQLETSAGREEVQDELGPGTIWPPHLTPRRGHRRFQRHNRLEDAPAPPEF | failed
8 | AIAVSPLKTRCCSPSSQQQASEAREIEQPSTVWELDFYSRPVYGKDNKRIWELIVVDESFLLCHVESVPNDMINSAELRKRVERLLEQVTVKPKVVKFSRMPMFNMISLALKDLGFEVKPSRRTYRLYHVLRDREANIYSKMPGYRSENTLSTSYLYSTERLPDALRGEKFAFCTADYSFLYELQSSDTIPYCDIFNTGDSILLEKELPGIIVYSERADSLASWTAGAEVSFIKFREEELELVLECGINSHYRLAKIAEDHRLVEEAKTFEQMKWHMKGFHFYAIQSLKETSGTSHIKGLWLLNDFMEQ | not failed
9 | AITLTCDEIEQAFLHDHIFNYYQPQFDFRSGAMVGVEALVRYEHPTHGMLSPAVFLPLIEQCGLHEKLFLTVLEKSVSALASIGADLQLSVNISQRNLQHSICDPILAICERYGFPASKLTLEMTEHEVYNGTPTSLANLARLRMYGVGLSIDDFGTGYASLGQLAQLPFTELKIDRSFVHDLATNYKHQQLTNMCLLLAQSLGLHCVVEGVENEETWQYLRQLGVDTCQGYYAAKP | failed
10 | ALIAGHFADPFSVLGMHRTDAGLEVRALLPDATDVWVIEPKTGRKVGKLECLDSRGFFSGVLPRRKNAFRYQLAVTWHGQQNLIDDPYRFGPLLQ | failed
11 | ALKLMQYIGDAIGTIRDPQELFRTVTDKLRLLFAFDSAVIITIDRERREASVFFEMLRFELPEQLRHQTRSIAGTWLEGHLDDRTVTVASIARDIPSFGADGAPLLWTLHELGMRQIVLSPLRSGGRVIGFLSFVSAEEKLWSDGDKSLLSGVSSSIAIAVSNALAYEELRQRE | not failed
12 | ALQDRTQFSDRDLATLKKYWDNGMTSLGSVCREKIEAVATELNVDCEIVRTWIGNRRRKYRLMGIEV | not failed
13 | ALYNVDAGHRAVIFDRFRGVQDIVVGEGTHFLIPWVQKPIIFDCRSRPRNVPVITGSKDLQNVNITLRILFRPVASQLPRIFTSI | failed
14 | ANTSGKDGTTVVIGESKSDHVIHLYEDPRCPGCAAMEQSIGETVNKGMEDGDYKLSFTVGTFLDGNLGGEGSKNALSALGAALNVSPEAFVDYKTALYSTKYHPEESTDEFAKDDYLIKVADSVDALKGNKKFQDAVEKGTYDAWAMRMSKSFDKAEGVESTPTIKINDKVVETPSTPDAWQKALKDAGVTK | failed
15 | APAEPAAPKSGEAETPPKHPGVLKVEAILEKVQGLEQAVDSFEGKKTDKKYLMIEEYLTKELLALDSVDPEGRADVRQARRDGVRKVQTILEKLEQKA | not failed
16 | APEWTEEDLSQLTRSMVKFPGGTPGRWEKIAHELGRSVTDVTTKAKQLKDSVTCSPGMV | not failed
17 | APKTFMFGVSKVEEPKTVSFGTGIKETTATSSTEATAPTPAAAAPAPVQFVFKAPTTATTASSLTTTISTTSNAPALGGFSFGAPSSSSTVSSSTTSTSANPAAVKPMFSWSGAGSAVSSTSSSQQPVAKAPTLGFGVSSSTVTTTTTSTKVFAFTPASGLDPAAATSAPAAGAGFSFGSQSKPATTQNTGTFFFGQPTAVAPATPTNPSVSSIFGAPATSTTASTSVSATTSTSTANAIASSFAPTSTPQLFGNWGEKKTDLTTFGASSGSGTTTTPSFGWSSNGDAAKSNSAAVGSAAVPSSSASTMATPIFGSSSMFGPSSSSNNTTSTSTTSLPFGSAATTAATTPAGGNAALTGLFGNVGNSLAGVGAPVATTPAATAAAPLTNIFGNPTPVAAAAPVFGSGSTIPSAGFGAPAAAAPLAAPALPGAFN | failed
18 | APLPVIFIPGIMGTNLRNKADKSEVWRPPNGLWPMDDLFASIGALWTWAWRGPKARQELLKAEQVEVDDQGTIDVGQSGLSEEAARLRGWGKVMRSAYNPVMGLMERRLDNIVSRRELQAWWNDEALSPPGDQGEEQGKVGPIDEEELLRASRYQFDVWCAGYNWLQSNRQSALDVRDYIENTVLPFYQKECGLDPEQMRRMK | failed
19 | APRSVAMVVPQGSDIRQLSDLRGKRIALNKGSNVHWLLLQILEDAGLGLNDVRVVYTPPKYPLTASDYLAVDAWMMWDPLLSDAEHTGELRVVASGEGRVNNHQFYLSRRDYLAQHGDIMRRLLTELTHTGQFIDSHRGEAARLLSAELGI | failed
20 | AQAALEASEEKFAKAFHSSPDSITITEIESGRYVEVNDGFCRLTGFSAREVLGRTAHEIGIWTDTVQREFMIDELRQKGRMHHREMNGRDKKGAPLVLDVSVEFITLNNTACLLMNARDIG | failed
21 | AQELAHKINHIVASRPATAAMLQEIAHLVGTATNVDCCCLVTVTNEESTETTTANWCSDEFLGVPLSNEMFSTERFLMELPVLQCAVEPRNIDEISIIRNSLVVGCQHLPLPIKAVLAISTRFGGKTNGVISLIKFQSHDWDDSAKNILKTIEASCAIAFSQLTQAQLISSQQQHLQ | failed
22 | AQIPQQIKGVICINAGGGIYLKEAFEQFRVAGQRFLQVRPRWLSQVPLIDLLFTRASVSRPLDRQWARQRVIDFVVADPEAALGALLDSTTEDEVNRLPKLVSQLKQPVYFLAGTDDKVMEPKYVRHLASFHPLFQYCGDNVIEIPDCGHLAMLEQPDAVASHIKSLV | failed
23 | ARDPAKLKQVAGQPRLREAVIRLMRGTDVIRVKMYALNGITLFSTDASQIGEDESDDDGFRSAAAGTPASELAHNHSIDAFERTLTDRDIISTYVPVHDPAGKIEGVLEIYLDATPFVADSDQQ | failed
24 | ARFMAVSSELKDDTRTYTVAGQVFFASSDRFMSHFDFREAVERVVIDVTHAHFWDITSVSALDRVVIKFRREGTEVEIKGMNDATRTLVDRFGVHDKPEEVEKLMGGH | not failed
25 | ARFYSDGLKLAGTLFVPDDYEPGQKRPAVLICHGRFAIKEWVPSRWTPHFLAAGYVCMVFDYRNLGESEGTPGRIIPDEEVRDARHALTYLQCQPEVDPARIGALGWGLGGGVAVSAAAHDARIKAVVCAIGVANGGRYGRVGMSDAAWAARQEQIAADRRERVLTGRSARLPRTEILGRPDAQRAERHERQNWIDSLVAAVGPERAADPAKLGIPDEITLESMEALYDFAPDAVVDRIAPRPLLIVHARDDHEFPFEHAADMYERAAQPKQLIAVEDAGHLDWIDPAHPSQQVYVPQVVAWMQAQL | not failed
26 | ARPCIPKSFGYSSVVCVCNATYCDSFDPPTFPALGTFSRYESTRSGRRMELSMGPIQANHTGTGLLLTLQPEQKFQKVKGFGGAMTDAAALNILALSPPAQNLLLKSYFSEEGIGYNIIRVPMASCDFSIRTYTYADTPDDFQLHNFSLPEEDTKLKIPLIHRALQLAQRPVSLLASPWTSPTWLKTNGAVNGKGSLKGQPGDIYHQTWARYFVKFLDAYAEHKLQFWAVTAENEPSAGLLSGYPFQCLGFTPEHQRDFIARDLGPTLANSTHHNVRLLMLDDQRLLLPHWAKVVLTDPEAAKYVHGIAVHWYLDFLAPAKATLGETHRLFPNTMLFASEACVGSKFWEQSVRLGSWDRGMQYSHSIITNLLYHVVGWTDWNLALNPEGGPNWVRNFVDSPIIVDITKDTFYKQPMFYHLGHFSKFIPEGSQRVGLVASQKNDLDAVALMHPDGSAVVVVLNRSSKDVPLTIKDPAVGFLETISPGYSIHTYLWHRQ | not failed
27 | ASDFQTGIHKIVIQQSGDTDSFEVSVSIGGADKGGPAKLYNDKGEYIGDSYSAQIRTATMSCCTNGNAFFMTCAGSVSSISEAGKRLHITVIGYIDDKEVNRLEKEYITDGNTLIETFSVSTKEI | not failed
28 | ASDSAFTYNGVSITRPTNEVNDVISGVNITLEQTTEPNKPAIISVSRDNQAIIDSLTEFVKAYNELIPKLDEDTRYDADTKIAGIFNGVGDIRAIRSSLNNVFSYSVHTDNGVESLMKYGLSLDDKGVMSLDEAKLSSALNSNPKATQDFFYGSDSKDMGGREIHQEGIFSKFNQVIANLIDGGNAKLKIYEDSLDRDAKSLTKDKENAQELLKTRYNIMADVLPLMIAKSLKPIKNSIPCK | failed
29 | ASKAFYSAGDKLFQPGDDAVASMQTYSVAQFLQPFTLNPAKASSDYLGKWVKVRGVIVDIRRKSGIAGSYYFIVTMRDEQNKTDKRLTFNFGSHNSADVEALSNGSVATIVGQVHQVQDSTIPTLQNPKVVK | not failed
30 | ATHIIFTTHENSDGDGLGSQVALALALKALGKEVAIFNPTEVPPNYLFLKELHEINLFRDRDEESMQEFFLADLLVVLDANLHDRIGRLWPHVEFARQMSRLKVLCIDHHLEPEDFADITVCETYASSTGELVCDLVTALELRTGQQLFTPEVASALYAAIMTDTGSFRFPKTTPYTYRLAGMLVEKGADPELVYDRIYNAL | failed
